Measurements as given in US20180079819A1 (IMMUNOGEN, published 2018).
Numbering of substitutions follows the chain as printed. Values joined by “and” are separate entries in the source; they are usually repeats but may differ in a detail not shown here. Identical values can stand only once.

Assays:
[1] = target: T1, human CD123 (IL-3Rα, interleukin-3 receptor alpha chain) (human, UniProt P26951 19-378); assay: cell-based or functional assay
[2] = target: T1, human CD123 (IL-3Rα, interleukin-3 …); assay: flow cytometry on HNT-34 cells, apparent Kd against that of 7G3
[3] = target: T1, human CD123 (IL-3Rα, interleukin-3 …); assay: flow cytometry on HNT-34 cells; apparent Kd
[4] = target: T1, human CD123 (IL-3Rα, interleukin-3 …); assay: flow cytometry on HNT-34 cells, PE-conjugated goat anti-human secondary
[5] = target: T1, human CD123 (IL-3Rα, interleukin-3 …); assay: flow cytometry on TF-1 cells; EC50 of the binding curve taken as apparent Kd
[6] = target: T1, human CD123 (IL-3Rα, interleukin-3 …); assay: flow cytometry on HNT-34 cells; EC50 of the binding curve taken as apparent Kd
[7] = target: T1, human CD123 (IL-3Rα, interleukin-3 …); assay: flow cytometry on TF-1 cells; EC50 of the binding curve taken as apparent Kd; TF-1 cells
Procedure: Binding affinity was tested by flow cytometry using purified antibodies. […] TF-1 cells (5×10⁴ cells per sample) were incubated with varying concentrations of murine antibodies in 200 μL FACS buffer (DMEM medium supplemented with 2% normal goat serum). The cells were then pelleted, washed twice, and incubated for 1 hr with 100 μL of phycoerythrin (PE)-conjugated goat anti-mouse IgG-antibody (Jackson Laboratory). The cells were pelleted again, washed with FACS buffer and resuspended in 200 μL of PBS containing 1% formaldehyde. Samples were acquired using a FACSCalibur flow cytometer with the HTS multiwell sampler, or a FACS array flow cytometer, and analyzed using CellQuest Pro (all from BD Biosciences, San Diego, US). For each sample the geomean fluorescence intensity for FL2 was calculated and plotted against the antibody concentration in a semi-log plot. A dose-response curve was generated by non-linear regression and the EC₅₀ value of each curve, which corresponds to the apparent dissociation constant (Kd) of each antibody, was calculated using GraphPad Prism v4 (GraphPad software, San Diego, Calif.).

[8] = target: T2, IL3Rα (101-306) chimeric receptor protein: GMRα residues 1-114 fused to IL3Rα residues 101-306, His-tagged (human, UniProt P15509 23-114); assay: ELISA on plate-coated His-tagged protein, A450
T2 construct: range 1-114; also called CRM domain of IL3Rα construct
T2 sequence: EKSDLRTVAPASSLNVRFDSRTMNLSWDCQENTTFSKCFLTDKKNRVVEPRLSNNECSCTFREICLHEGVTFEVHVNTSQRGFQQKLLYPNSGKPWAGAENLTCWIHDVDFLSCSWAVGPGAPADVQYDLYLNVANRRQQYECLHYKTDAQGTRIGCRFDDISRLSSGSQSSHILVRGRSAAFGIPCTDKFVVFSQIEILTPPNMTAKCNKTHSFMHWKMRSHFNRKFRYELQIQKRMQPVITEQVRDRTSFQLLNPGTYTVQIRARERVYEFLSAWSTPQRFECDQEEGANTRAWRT
Procedure: (§1) The chimeric and humanized anti-IL3Rα antibodies were tested in enzyme-linked immunosorbent assay (ELISA) format for binding to the IL-3Rαproteins described above. Briefly, each His-tagged IL-3Rαprotein purified by Ni Sepharose excel chromatography was diluted to 1 ng/mL in 50 mM sodium bicarbonate buffer pH 9.6, and 100 μL was added to each well. After a 16 hr incubation at 4° C., the plates were washed with Tris-buffered saline with 0.1% Tween-20 (TBST), then blocked with 200 μL blocking buffer (TBS with 1% BSA). Next, 100 μL of primary antibody, serially diluted in blocking buffer, was added in duplicate to the ELISA wells and incubated at room temperature for 1 hr. The plates were then washed 3 times with TBST before adding 100 μL of anti-human IgG (H+L)-HRP (Jackson ImmunoResearch) to each well. Once again the plates were incubated for 1 hr at room temperature followed by three washes with TBST. Finally, 100 μL of TMB one component HRP microwell substrate (Surmodics) was added to each well and incubated for 5 min. The reaction was stopped by adding 100 μL stopping solution (Surmodics) and absorbances were read at 450 nm.
(§2) Binding of the CD123 antibodies to the chimeric IL-3Rαproteins was evaluated in comparison to the wild type IL-3Rα.

[9] = target: T3, extracellular domain of CD123/IL-3Rα (residues 1-306), histidine tagged (human, UniProt P26951 19-306); assay: ELISA on plate-coated His-tagged protein, A450
T3 construct: Expressed in HEK 293T cells, purified on Ni Sepharose, coated on ELISA plates; also called wild type IL-3Rα; wild-type IL-3Rα construct
T3 sequence: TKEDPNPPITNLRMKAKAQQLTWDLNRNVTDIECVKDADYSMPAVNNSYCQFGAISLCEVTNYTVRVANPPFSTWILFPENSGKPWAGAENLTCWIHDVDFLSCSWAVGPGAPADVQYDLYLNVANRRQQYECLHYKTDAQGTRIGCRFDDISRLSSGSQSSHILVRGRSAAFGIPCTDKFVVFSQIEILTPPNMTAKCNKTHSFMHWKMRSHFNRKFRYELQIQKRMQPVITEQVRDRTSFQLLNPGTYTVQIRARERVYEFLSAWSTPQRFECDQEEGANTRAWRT
Procedure: as §1, §2

[10] = target: T1, human CD123 (IL-3Rα, interleukin-3 …); assay: flow cytometry on MOLM-13 cells; apparent Kd; MOLM-13 cells
[11] = target: T1, human CD123 (IL-3Rα, interleukin-3 …); assay: flow cytometry on HNT-34 cells, against muCD123-3 of Example 5
[12] = target: T1, human CD123 (IL-3Rα, interleukin-3 …); assay: flow cytometry on HNT-34 cells, against muCD123-6 of Example 5
[13] = target: T4, IL3Rα (1-100) chimeric receptor protein: IL3Rα residues 1-100 fused to GMRα residues 115-325, His-tagged (human, UniProt P15509 115-325); assay: ELISA on plate-coated His-tagged protein, A450
T4 construct: range 115-325; also called IL-3Rα N-terminal domain construct
T4 sequence: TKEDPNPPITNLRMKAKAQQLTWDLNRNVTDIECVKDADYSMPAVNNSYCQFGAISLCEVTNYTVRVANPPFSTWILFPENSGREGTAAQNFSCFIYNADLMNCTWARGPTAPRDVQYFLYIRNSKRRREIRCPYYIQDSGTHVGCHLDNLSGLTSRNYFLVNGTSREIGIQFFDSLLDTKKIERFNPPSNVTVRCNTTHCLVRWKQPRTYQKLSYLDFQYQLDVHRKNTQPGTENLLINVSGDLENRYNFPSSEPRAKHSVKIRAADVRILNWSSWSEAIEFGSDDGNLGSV
Procedure: as §1, §2

[14] = target: T1, human CD123 (IL-3Rα, interleukin-3 …); assay: flow cytometry on HNT-34 cells, against muCD123-14 of Example 5

B1: huCD123-6Gv4.7S3 (antibody, human IgG1, kappa)
heavy: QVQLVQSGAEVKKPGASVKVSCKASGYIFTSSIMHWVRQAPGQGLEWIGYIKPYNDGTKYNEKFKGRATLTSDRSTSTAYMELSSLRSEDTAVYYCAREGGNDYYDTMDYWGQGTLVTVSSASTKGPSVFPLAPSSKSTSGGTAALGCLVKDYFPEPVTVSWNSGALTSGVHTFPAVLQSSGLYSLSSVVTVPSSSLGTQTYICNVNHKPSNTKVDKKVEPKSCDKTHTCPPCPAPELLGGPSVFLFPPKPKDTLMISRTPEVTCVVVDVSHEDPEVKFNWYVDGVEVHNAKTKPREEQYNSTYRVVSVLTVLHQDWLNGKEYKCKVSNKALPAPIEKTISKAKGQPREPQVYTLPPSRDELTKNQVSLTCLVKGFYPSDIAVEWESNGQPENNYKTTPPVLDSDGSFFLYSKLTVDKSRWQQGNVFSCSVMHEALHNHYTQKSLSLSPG
light: SIQMTQSPSSLSASVGDRVTITCRASQDINSYLSWFQQKPGKAPKTLIYRVNRLVDGVPSRFSGSGSGNDYTLTISSLQPEDFATYYCLQYDAFPYTFGQGTKVEIKRTVAAPSVFIFPPSDEQLKSGTASVVCLLNNFYPREAKVQWKVDNALQSGNSQESVTEQDSKDSTYSLSSTLTLSKADYEKHKVYACEVTHQGLSSPVTKSFNRGEC
notes: also called huCD123-6Gv4.7 clone (S3); CD123-6G4.7S3
[1]
  IC50, inhibition of IL-3 dependent proliferation of TF-1 cells: 0.02 nM
[2]
  fold higher affinity than the 7G3 antibody: ≥ 30 fold
[3]
  Kd: ~0.06 nM
[4]
  EC50 (read off the curve): ~0.05 nM

B2: huCD123-6Gv4.7S2 (antibody, human IgG1, kappa)
heavy: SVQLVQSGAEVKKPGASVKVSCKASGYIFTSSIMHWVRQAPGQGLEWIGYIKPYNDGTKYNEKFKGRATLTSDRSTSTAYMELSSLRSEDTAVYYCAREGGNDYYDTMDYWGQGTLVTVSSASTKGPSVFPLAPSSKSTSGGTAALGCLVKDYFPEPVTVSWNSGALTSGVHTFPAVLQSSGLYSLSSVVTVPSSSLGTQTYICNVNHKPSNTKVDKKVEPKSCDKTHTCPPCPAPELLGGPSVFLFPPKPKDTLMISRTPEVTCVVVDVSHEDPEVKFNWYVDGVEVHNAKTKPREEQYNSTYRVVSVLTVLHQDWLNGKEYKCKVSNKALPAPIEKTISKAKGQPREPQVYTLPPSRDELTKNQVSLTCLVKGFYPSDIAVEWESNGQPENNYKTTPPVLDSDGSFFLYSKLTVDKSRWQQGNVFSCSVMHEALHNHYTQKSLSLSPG
light: B1 light with S1D
notes: CDR-grafted humanized antibody with an engineered N-terminal Ser on the heavy chain; also called huCD123-6Gv4.7 clone (S2)
[1]
  IC50, inhibition of IL-3 dependent proliferation of TF-1 cells: 0.02 nM
[2]
  fold higher affinity than the 7G3 antibody: ≥ 30 fold
[3]
  Kd: ~0.06 nM

B3: 7G3 (antibody, V domains shown)
VH: EVQLQQSGPELVKPGASVKMSCKASGYTFTDYYMKWVKQSHGKSLEWIGDIIPSNGATFYNQKFKGKATLTVDRSSSTAYMHLNSLTSEDSAVYYCTRSHLLRASWFAYWGQGTLVTVSA
VL: DFVMTQSPSSLTVTAGEKVTMSCKSSQSLLNSGNQKNYLTWYLQKPGQPPKLLIYWASTRESGVPDRFTGSGSGTDFTLTISSVQAEDLAVYYCQNDYSYPYTFGGGTKLEIKR
[1]
  IC50, inhibition of IL-3 dependent proliferation of TF-1 cells: 0.33 nM and 0.2 nM
[3]
  Kd: ~2 nM
[5]
  Kd: 0.9 nM
[6]
  Kd: 2 nM

B4: muCD123-14 (antibody, mouse IgG1, kappa, V domains shown)
VH: EVKLVESGGDLVKPGGSLKLSCAASGFTFSNYAMSWVRQNSEKRLEWVATINSGGSFTYYPDSVKGRFTISRDNAKDSLYLQMSSLNSEDTAMYYCARQSEAYYGYDKRTWFAYWGQGTLVTVSS
VL: DILLTQSPAILSVSPGTRVSFSCRASQSVGTSIHWYQQRPNGFPRLLIKYASESISGIPSRFSGSGSGTDFTLNINSVESEDIADYYCQQSKSWPLTFGAGTKLELKR
notes: Murine monoclonal antibody purified from hybridoma supernatant; also called CD123Mu-14; CD123 Mu-14
[1]
  IC50, inhibition of IL-3 dependent proliferation of TF-1 cells: 0.08 nM
[6]
  Kd: 0.5 nM
[7]
  Kd: 0.3 nM

B5: muCD123-6 (antibody, mouse IgG1, kappa, V domains shown)
VH: EFQLQQSGPELVKPGASVKMSCKASGYIFTSSIMHWMKQKPGQGLEWIGYIKPYNDGTKYNEKFKGKATLTSDKSSSTANMELNSLTSEDSAVYYCAREGGNDYYDTMDYWGQGTSVTVSS
VL: DIKMTQSPSSMYASLGERVTITCKASQDINSYLSWFQQKPGKSPKTLIYRVNRLVDGVPSRFSGSGSGQDYSLTISSLEYEDMGIYYCLQYDAFPYTFGGGTKLEIKR
notes: Murine monoclonal antibody purified from hybridoma supernatant; also called CD123Mu-6; CD123 Mu-6
[1]
  IC50, inhibition of IL-3 dependent proliferation of TF-1 cells: 0.05 nM
[3]
  Kd: ~0.06 nM
[6]
  Kd: 0.07 nM
[7]
  Kd: 0.1 nM

B6: chCD123-3 (antibody, human IgG1, V domains shown)
VH: EFQLQQSGPEVVKPGASVKMSCKASGYTFTSYVMHWMKQKPGQGLEWIGYIKPYKDGTKYNEKFKGKATLISDKPSSTAYMELSSLTSEDSAVYYCAREGENGYYDAMDYWGQGTSVTVSS
VL: DIQMTQSPSSLSASLGGKVTITCKASQDINKYIAWYQHKPGKGPRLLIHYTSTLQPGIPSRFSGSGSGRDYSFSISNLEPEDIATYYCLQYDNLLYTFGGGTKLELKR
notes: human IgG1 and Kappa are spelled out for chCD123-6 and the same vectors and constant regions were used; also called chimeric CD123-3 antibody
[1]
  IC50, inhibition of IL3-dependent proliferation of TF-1 cells: 0.1 nM
[3]
  Kd: 0.1 nM
[8]
  EC50: 0.852 nM
[9]
  EC50: 0.274 nM
[10]
  Kd: 0.2 nM
[11]
  fold difference of Kd from the murine counterpart: ≤ 2.5 fold

B7: chCD123-6 (antibody, human IgG1, V domains shown)
VH: B5 VH
VL: B5 VL
notes: also called chimeric CD123-6 antibody
[1]
  IC50, inhibition of IL3-dependent proliferation of TF-1 cells: 0.03 nM
  IC50, inhibition of IL-3 dependent proliferation of TF-1 cells: 0.02 nM
[3]
  Kd: 0.04 nM and ~0.06 nM
[10]
  Kd: 0.08 nM
[12]
  fold difference of Kd from the murine counterpart: ≤ 2.5 fold

B8: chCD123-14 (antibody, V domains shown)
VH: B4 VH
VL: B4 VL
notes: also called chimeric CD123-14 antibody
[1]
  IC50, inhibition of IL3-dependent proliferation of TF-1 cells: 0.05 nM
[3]
  Kd: 0.2 nM
[13]
  EC50: 0.0479 nM
[9]
  EC50: 0.0655 nM
[14]
  fold difference of Kd from the murine counterpart: ≤ 2.5 fold

B9: huCD123-6Gv4.7 (antibody, human IgG1, kappa)
heavy: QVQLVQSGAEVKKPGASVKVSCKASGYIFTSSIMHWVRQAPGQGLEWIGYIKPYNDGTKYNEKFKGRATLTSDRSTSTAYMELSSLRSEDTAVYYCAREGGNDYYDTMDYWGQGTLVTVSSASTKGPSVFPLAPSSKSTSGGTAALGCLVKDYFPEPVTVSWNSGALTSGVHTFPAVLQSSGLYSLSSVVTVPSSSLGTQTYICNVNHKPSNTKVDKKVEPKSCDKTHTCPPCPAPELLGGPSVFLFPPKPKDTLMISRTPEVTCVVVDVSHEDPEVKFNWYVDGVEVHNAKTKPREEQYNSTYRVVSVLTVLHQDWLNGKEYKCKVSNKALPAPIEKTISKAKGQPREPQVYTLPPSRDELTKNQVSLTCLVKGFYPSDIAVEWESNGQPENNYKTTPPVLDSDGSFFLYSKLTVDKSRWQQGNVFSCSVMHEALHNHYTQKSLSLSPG
light: B1 light with S1D
notes: CDR-grafted humanized antibody; also called version 4.7 (VL Gv4 and VH Gv7)
[8]
  EC50: 0.145 nM
[9]
  EC50: 0.106 nM
